Source: patent publication US20250066441A1
Read-outs that look alike come from different tables or passages of the source.

Tests used:
Assay in all cases: cell-based or functional assay
[1] = target: murine IL12 receptor complex (IL12Rβ1 and IL12Rβ2) on cells (murine) (UniProt Q60837)
[2] = target: murine IL12 receptor complex (IL12Rβ1 and IL12Rβ2) on cells (murine) (UniProt Q60837); remark: listed apart in the source
[3] = target: murine IL12 receptor complex (IL12Rβ1 and IL12Rβ2) on cells (murine) (UniProt Q60837); remark: listed apart in the source

Chain of murine IL12 receptor complex (IL12Rβ1 and IL12Rβ2) on cells (murine) (Q60837 20-738, chain 1 of 2): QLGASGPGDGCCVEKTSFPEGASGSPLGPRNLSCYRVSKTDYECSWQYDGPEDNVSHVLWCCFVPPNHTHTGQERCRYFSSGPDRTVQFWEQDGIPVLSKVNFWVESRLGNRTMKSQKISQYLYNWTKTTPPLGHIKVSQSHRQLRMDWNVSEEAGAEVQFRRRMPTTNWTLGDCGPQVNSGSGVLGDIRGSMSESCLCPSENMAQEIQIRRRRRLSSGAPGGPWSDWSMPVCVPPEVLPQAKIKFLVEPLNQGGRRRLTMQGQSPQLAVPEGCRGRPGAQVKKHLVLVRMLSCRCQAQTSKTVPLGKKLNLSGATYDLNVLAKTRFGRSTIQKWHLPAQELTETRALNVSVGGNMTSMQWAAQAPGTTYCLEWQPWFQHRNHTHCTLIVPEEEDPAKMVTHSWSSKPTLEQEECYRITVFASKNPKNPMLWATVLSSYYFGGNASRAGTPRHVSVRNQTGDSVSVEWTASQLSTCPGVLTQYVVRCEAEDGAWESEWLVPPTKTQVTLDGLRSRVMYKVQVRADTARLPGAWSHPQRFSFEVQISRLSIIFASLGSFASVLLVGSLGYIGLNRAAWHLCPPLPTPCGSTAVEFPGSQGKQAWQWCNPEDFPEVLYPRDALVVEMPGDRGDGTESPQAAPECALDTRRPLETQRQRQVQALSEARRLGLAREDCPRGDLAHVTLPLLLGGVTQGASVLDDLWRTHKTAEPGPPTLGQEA
Chain of murine IL12 receptor complex (IL12Rβ1 and IL12Rβ2) on cells (murine) (P97378 24-874, chain 2 of 2, further chain): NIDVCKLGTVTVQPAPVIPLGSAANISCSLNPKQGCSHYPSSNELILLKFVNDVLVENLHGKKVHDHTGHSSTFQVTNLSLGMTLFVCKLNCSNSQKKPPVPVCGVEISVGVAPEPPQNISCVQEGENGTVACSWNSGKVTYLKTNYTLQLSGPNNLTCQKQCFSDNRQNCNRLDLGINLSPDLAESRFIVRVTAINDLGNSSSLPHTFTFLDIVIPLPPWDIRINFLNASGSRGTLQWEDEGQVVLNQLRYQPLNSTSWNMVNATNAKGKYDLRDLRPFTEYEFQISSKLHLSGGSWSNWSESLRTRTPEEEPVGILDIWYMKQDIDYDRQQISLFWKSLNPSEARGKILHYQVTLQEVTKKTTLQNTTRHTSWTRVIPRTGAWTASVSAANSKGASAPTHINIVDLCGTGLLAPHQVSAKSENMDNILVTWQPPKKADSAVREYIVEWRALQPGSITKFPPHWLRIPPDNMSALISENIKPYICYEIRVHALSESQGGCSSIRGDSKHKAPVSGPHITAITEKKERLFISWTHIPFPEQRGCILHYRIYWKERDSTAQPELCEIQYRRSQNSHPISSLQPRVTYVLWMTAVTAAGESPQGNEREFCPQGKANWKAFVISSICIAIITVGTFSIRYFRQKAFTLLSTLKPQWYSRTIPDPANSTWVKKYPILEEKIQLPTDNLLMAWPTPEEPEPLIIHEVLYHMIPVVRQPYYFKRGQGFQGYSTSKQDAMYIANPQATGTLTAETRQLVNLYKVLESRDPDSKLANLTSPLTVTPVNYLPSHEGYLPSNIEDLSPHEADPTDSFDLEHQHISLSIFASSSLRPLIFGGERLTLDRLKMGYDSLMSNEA

- EC50 (M), STAT3-Luc reporter, CTLL2/STAT3-Luc cells [1]: 3.46e-11 M
- Fold induction at 20 nM, STAT3-Luc reporter, CTLL2/STAT3-Luc cells [1]: 18.8 fold
- Max fold induction, STAT3-Luc reporter, CTLL2/STAT3-Luc cells [1]: 19.1 fold
- EC50 (M), STAT3-Luc reporter, CTLL2/STAT3-Luc cells [2]: 5.56e-11 M
- Fold induction at 6.25 nM, STAT3-Luc reporter, CTLL2/STAT3-Luc cells [2]: 12.2 fold
- Max fold induction, STAT3-Luc reporter, CTLL2/STAT3-Luc cells [2]: 12.4 fold
- EC50 (M), STAT3-Luc reporter, CTLL2/STAT3-Luc cells [3]: 3.71e-10 M
- Max fold induction, STAT3-Luc reporter, CTLL2/STAT3-Luc cells [3]: 17.8 fold
B1: Recomb mIL12 (ligand, mouse)
chain 1: MWELEKDVYVVEVDWTPDAPGETVNLTCDTPEEDDITWTSDQRHGVIGSGKTLTITVKEFLDAGQYTCHKGGETLSHSHLLLHKKENGIWSTEILKNFKNKTFLKCEAPNYSGRFTCSWLVQRNMDLKFNIKSSSSSPDSRAVTCGMASLSAEKVTLDQRDYEKYSVSCQEDVTCPTAEETLPIELALEARQQNKYENYSTSFFIRDIIKPDPPKNLQMKPLKNSQVEVSWEYPDSWSTPHSYFSLKFFVRIQRKKEKMKETEEGCNQKGAFLVEKTSTEVQCKGGNVCVQAQDRYYNSSCSKWACVPCRVRS
chain 2: RVIPVSGPARCLSQSRNLLKTTDDMVKTAREKLKHYSCTAEDIDHEDITRDQTSTLKTCLPLELHKNESCLATRETSSTTRGSCLPPQKTSLMMTLCLGSIYEDLKMYQTEFQAINAALQNHNHQQIILDKGMLVAIDELMQSLNHNGETLRQKPPVGEADPYRVKMKLCILLHAFSTRVVTINRVMGYLSSA
